Source: patent CN111606996A

Target: 4D5 CAR on NK92-4D5-Canada cells
Test: flow cytometry on NK92-4D5-Canada cells, 2μg 5D1 + BV421 goat anti-mouse

B1: 靶向4D5的鼠源单克隆抗体5D1 (antibody, V domains shown)
VH: QVQLEQSGAEFVRPGALVRLSCKASGFNIKDYYIHWVKQRPEQGLEWIGWIYPENDDTIYDPKFQGKASLTADTSSNTAYLQLSSLTSEDSAVYFCVRSGSDSSFDYWGQGTTLTVSS
VL: DIVMTQSTASLAVSLGQRATISCRASESVDSYDNSFMHWFQQKPGQPPKLLIYLASNLESGVPARFSGSGSRTDFTLTIDPVEADDAATYYCQQNNEDPFTFGSGTKLEIKR
  阳性细胞数在总细胞中占比: 60.2%
